The assay concerns the target NANP 5.5-mer peptide, NP(NANP)5, representative of the PfCSP central repeat (Plasmodium falciparum (NF54)). The assay can be described thus: SPR (FIG. 5E).

On to mAb 317 (antibody), for which the Kd was under 100 pM.
mAb CIS43 (antibody) came in with a fold lower affinity than mAb 4493 of 100 fold.

For orientation: Kd means the equilibrium constant for the complex coming apart.

The values above are taken from patent publication US20220396614A1.
